The record followed here is US20220125891A1 (OSAKA UNIVERSITY, published 2022).

Read-outs that look alike come from different tables or passages of the source. Positions of bridges follow the written chain, without caps; N, C: chain ends. Non-standard residues stand in square brackets, D forms with d. No end group written: not given here. NMeA = CN[C@@H](C)C(=O)O; dNMeA = CN[C@H](C)C(=O)O

Assay [1] deals with T1, full-length human Regnase-1 with a FLAG tag on the N-terminal side and a biotin ligase BirA recognition … (human, UniProt Q5D1E8 1-599, biotinylated where required ; Biotinylated at the BirA recognition sequence where required. That sequence is not in the letters.).
T1 construct: Expressed in Expi293 cells, purified on FLAG M2 agarose and by gel filtration; also called full-length Regnase-1; human full-length Regnase-1
T1 sequence: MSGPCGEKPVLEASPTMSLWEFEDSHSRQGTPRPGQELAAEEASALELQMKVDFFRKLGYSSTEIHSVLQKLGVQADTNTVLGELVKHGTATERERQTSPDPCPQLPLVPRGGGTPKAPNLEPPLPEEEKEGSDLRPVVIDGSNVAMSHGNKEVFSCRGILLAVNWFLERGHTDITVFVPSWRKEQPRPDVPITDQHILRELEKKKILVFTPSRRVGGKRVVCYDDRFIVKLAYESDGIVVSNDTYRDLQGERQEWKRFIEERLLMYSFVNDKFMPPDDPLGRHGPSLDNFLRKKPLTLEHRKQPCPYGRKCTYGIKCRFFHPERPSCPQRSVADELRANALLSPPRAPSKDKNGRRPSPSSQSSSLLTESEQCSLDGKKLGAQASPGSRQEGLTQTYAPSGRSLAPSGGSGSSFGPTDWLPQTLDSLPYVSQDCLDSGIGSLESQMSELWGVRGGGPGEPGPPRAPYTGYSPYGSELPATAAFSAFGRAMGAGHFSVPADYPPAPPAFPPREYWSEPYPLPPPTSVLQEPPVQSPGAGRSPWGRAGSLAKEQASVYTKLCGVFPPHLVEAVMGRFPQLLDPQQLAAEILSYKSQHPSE
Description: AlphaScreen, blocks IKKβ binding to FL_Reg1. (Bead proximity is the source of the signal in Alpha formats.)

The target of assay [2] is T2, Reg1_301-599 (human Regnase-1 amino acids 301 to 599, FLAG tag on the N-terminal side, BirA recognition … (human)).
T2 sequence (Q5D1E8 301-599, looked up): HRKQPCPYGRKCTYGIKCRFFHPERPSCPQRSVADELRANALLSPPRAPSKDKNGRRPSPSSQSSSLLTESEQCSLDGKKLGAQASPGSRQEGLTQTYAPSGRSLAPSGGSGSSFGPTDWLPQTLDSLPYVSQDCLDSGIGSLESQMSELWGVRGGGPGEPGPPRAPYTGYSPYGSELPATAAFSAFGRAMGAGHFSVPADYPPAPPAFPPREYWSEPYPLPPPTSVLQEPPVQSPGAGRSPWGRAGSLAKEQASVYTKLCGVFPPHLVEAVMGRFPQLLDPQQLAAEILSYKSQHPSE
The assay is described as follows: cell-based or functional assay.

Assay [3] has as its target T1, full-length human Regnase-1 with a FLAG …. The assay is described as follows: cell-based or functional assay.
Assay [4] addresses T3, ΔCTD_Reg1 (human Regnase-1 amino acids 1 to 546, FLAG tag on the N-terminal side, BirA recognition sequence … (human)). Description: cell-based or functional assay.
Assay [5] deals with T2, Reg1_301-599 (human Regnase-1 amino …). Description: cell-based or functional assay. This is another data set of the same source.
Assay [6] has as its target T1, full-length human Regnase-1 with a FLAG …. Description: cell-based or functional assay. This is another data set of the same source.
The target of assay [7] is T3, ΔCTD_Reg1 (human Regnase-1 amino acids …). Description: cell-based or functional assay. This is another data set of the same source.
Assay [8] has as its target T1, full-length human Regnase-1 with a FLAG …. The assay is described as follows: affinity selection-MS (SEC, LC/MS), 1 µM each.
For assay [9] the target is unchanged. The assay is described as follows: AlphaScreen, blocks TBK1 binding to FL_Reg1.
For assay [10] the target is unchanged. The assay is described as follows: cell-based or functional assay. The source holds these as a separate data set.
Assay [11] deals with T3, ΔCTD_Reg1 (human Regnase-1 amino acids …). Description: cell-based or functional assay. This is another data set of the same source.
The target of assay [12] is T1, full-length human Regnase-1 with a FLAG …. Description: AlphaScreen, blocks TBK1 binding to FL_Reg1. This is another data set of the same source.
For assay [13] the target is unchanged. The assay is described as follows: AlphaScreen, blocks IKKβ binding to FL_Reg1. The source holds these as a separate data set.

As usually defined, the IC50 is the concentration at which inhibition is half-maximal. Consider [NMeA]NSWYKIWGLD (lactam N-11) [PP21], for which the IC50 in assay [1] came out at 20.7 µM; in [9], 5.6 µM. For the same molecule, the “IC50, phosphorylation by IKKβ” value was 37.2 µM in [2], 19.6 µM in [3] and 39.3 µM in assay [4]. Besides, the “IC50, phosphorylation by TBK1” value turned out to be 17 µM in assay [5], 13.5 µM in [6] and 11.7 µM in [7]. In addition, the “AS-MS ratio(%)” value in assay [8] was 15.1%.
With [NMeA]NSWYRIWGLD (lactam N-11) [PP22], the figures for the half-maximal inhibitory concentration (IC50) in assay [1] and in assay [9] were 26.8 µM and 11.4 µM, respectively. For the same molecule, the “IC50, phosphorylation by IKKβ” value amounted to 31 µM in assay [2], 15 µM in [3] and 34 µM in [4]. For the same molecule, the results for the “IC50, phosphorylation by TBK1” value in [5], in assay [6] and in [7] were 25.8 µM, 24.3 µM and 22.8 µM, respectively. In addition, in assay [8], the “AS-MS ratio(%)” value worked out at 14.5%.
Turning to [NMeA]VFYKIWYNWD (lactam N-11) [PP19], the figures for the IC50 in [1] and in [9] were 5.8 µM and 2.4 µM, respectively. Besides, the “IC50, phosphorylation by IKKβ” value in [2] stood at 10.1 µM; in assay [3] it was 5.4 µM; in [4], 12.6 µM. Moreover, the “IC50, phosphorylation by TBK1” value in assay [5] is 5.8 µM; in [6], 3.7 µM; in assay [7] it was 4.6 µM. Further, the “AS-MS ratio(%)” value in assay [8] was 2.1%.
Regarding [dNMeA]PTSSWYKIWD (lactam N-11) [PP23], the IC50 in assay [1] was determined as 41.3 µM; in assay [9], 9.2 µM. The entries for the “IC50, phosphorylation by IKKβ” value in [2], in assay [3] and in assay [4] were more than 62.1 µM, 25.6 µM and more than 62.1 µM, respectively. The figures for the “IC50, phosphorylation by TBK1” value in assay [5], in assay [6] and in assay [7] were 30.7 µM, 18.8 µM and 29.7 µM, respectively. Also, the “AS-MS ratio(%)” value in assay [8] came to 28.6%.
Regarding [dNMeA]KHASAWYRIWD (lactam N-12) [PP3], the 50% inhibitory concentration (IC50) stood at 8.3 µM in [1], 3.1 µM in assay [12], 3.1 µM in [9] and 8.3 µM in assay [13]. The “IC50, phosphorylation by IKKβ” value in assay [10] was 4.6 µM; in assay [11] it was 8.3 µM; in [2], 6.8 µM; in [3], 4.6 µM; in assay [4], 8.3 µM. Further, the “IC50, phosphorylation by TBK1” value amounted to 3.9 µM in [10]; 5.7 µM in assay [11]; 7.1 µM in assay [5]; 3.9 µM in [6]; 5.7 µM in [7]. In assay [8], the “AS-MS ratio(%)” value amounted to 1.2%.
Turning to [NMeA]TSWYKVNWGQD (lactam N-12) [PP1], the IC50 in assay [1], in assay [12], in assay [9] and in [13] was more than 62.1 µM each time. The “IC50, phosphorylation by IKKβ” value in assay [10] is 28.1 µM; in assay [11], more than 62.1 µM; in assay [2], more than 62.1 µM; in assay [3] it was 28.1 µM; in assay [4] it was more than 62.1 µM. The “IC50, phosphorylation by TBK1” value in [10] was 54.5 µM; in assay [11], more than 62.1 µM; in [5] it was more than 62.1 µM; in [6], 54.5 µM; in assay [7], more than 62.1 µM. Moreover, the “AS-MS ratio(%)” value in [8] is 21.8%.
On to [NMeA]DIWFDYWDYD (lactam N-11) [PP18], for which the IC50 in assay [1] and in [9] was less than 0.06 µM throughout. In addition, the “IC50, phosphorylation by IKKβ” value is 0.5 µM in [2], 0.4 µM in [3] and 0.2 µM in assay [4]. In addition, the “IC50, phosphorylation by TBK1” value in assay [5] was 0.9 µM; in assay [6] it was 0.6 µM; in assay [7], 1.8 µM. The “AS-MS ratio(%)” value in [8] worked out at 71.6%.
Consider [NMeA]GYANSWYNIWD (lactam N-12) [PP2], for which the IC50 turned out to be 35.8 µM in [1], 15.5 µM in [12], 15.5 µM in assay [9] and 35.8 µM in assay [13]. Also, the “IC50, phosphorylation by IKKβ” value in assay [10] stood at 16.6 µM; in assay [11] it was 14 µM; in assay [2], 18.5 µM; in assay [3] it was 16.6 µM; in assay [4], 14 µM. The “IC50, phosphorylation by TBK1” value in assay [10] stood at 21.7 µM; in assay [11], 17.6 µM; in assay [5], 22.4 µM; in assay [6], 21.7 µM; in assay [7], 17.6 µM. Besides, the “AS-MS ratio(%)” value in [8] is 14.2%.
Take [NMeA]KFWIHHSFED (lactam N-11) [PP20]: the IC50 is more than 62.1 µM in assay [1] and 47.6 µM in assay [9]. The “IC50, phosphorylation by IKKβ” value in [2] is more than 62.1 µM; in [3], 24.7 µM; in [4] it was more than 62.1 µM. Further, the “IC50, phosphorylation by TBK1” value was more than 62.1 µM in assay [5], 38.5 µM in [6] and more than 62.1 µM in assay [7]. Besides, the “AS-MS ratio(%)” value in assay [8] came out at 85%.
